Ends that are not written are not given here.
Biological target: T1, peptide 13 (TSESGELHGLTTE) (human, also: biotinylated, site not given here)
T1 construct: on the D-strand
T1 peptide: TSESGELHGLTTE
Test: ELISA: antibody titrated on NeutrAvidin-captured biotinylated peptide, non-linear regression
Procedure: ELISA assay was then utilized to identify the corresponding epitope(s) for each antibody. 5 μg/mL of NeutrAvidin (Pierce, USA) in 50 mM pH 9.6 sodium carbonate/bicarbonate buffer was used to coat 96-well Corning high-binding EIA/RIA plates. The plates were washed three times with TBST buffer and blocked with Superblock (Pierce, USA). Fifty to one hundred microliters of the biotinylated peptides were diluted with PBS to […] and added to each well and incubated at room temperature for one hour. […] After one hour room temperature incubation and washing steps, HRP-conjugated secondary antibody was applied. Goat-anti-mouse IgG or Fc HRP conjugates were used in the case of mouse monoclonal antibodies while goat-anti-rabbit IgG HRP conjugate antibody was used for rabbit polyclonal detection. TMB was used as the HRP substrate for the detections.

Kd: 0.25 nM
B1: MFD108 (antibody, V domains shown)
VH: EVQLVESGGDLVKPGGSLKLSCAASGFTFSNYGMSWVRQTPDKRLEWVATITSGGSYTYYPDSVKGRFTISRDNAKNTLYLQMSSLKSEDTAMYYCARDGTAWFAYWGQGTLVTVSA
VL: DIQMTQTTSSLSASLGDRVTISCRASQDISNYLNWYQQKPDGTVKLLIYYTSRLHSGVPSRFSGSGSGTDYSLTISNLEEEDIATYFCQQGNTLRTFGGGTKLEIK
notes: Mouse monoclonal IgG1, kappa light chain; also called mouse monoclonal antibody MFD108; hybridoma ATCC PTA-120816

Source: patent US20180022797A1 (published 2018)
